From the nanobody polyreactivity screen of Harvey et al. (2022)

Assay: yeast display, Sf9 membrane polyspecificity reagent, FACS + sequencing; frameworks hold sequencing errors
How it was run: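 Sorting gates, low and high (top ~1%), were placed on anti-HA fluorescence to track expression and on streptavidin fluorescence to track reagent binding. A clone's polyreactivity label is taken from the gate it came out of. The reagent was 10% biotinylated, detergent-solubilized Sf9 membrane, applied for 1 hour at 4 °C to galactose-induced yeast display cells.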

QVQLVESGGGLVQAGGSLRLSCAASGGTFFGYAMGWYRPAPGKERELVAAISGSGGRTYYADSVKGRFTISRDNAKNTVYLQMNSLKPEDTAVYYCAADATHETYYPFYYWGQGTQVTVSS
polyreactivity (PSR sort gate): high polyreactivity

QVQLVESGGGLVQAGGSLRLSCAASGLTFGGNAMGWYRQAPGKERELVAAISWSDDTTDYADSVKGRLTISRDNAKNTVYLQMNSLKPEDTAVYYCAARLPFEHVDYWGQGTQVTVSS
polyreactivity (PSR sort gate): low polyreactivity

QVQLVESGGGLVQAGGSLRLSCAASGSIFRVYAMGWYRQAPGKERELVARISRGGRTNYADSVKGRFTISRDNAKNTVYLQMNSLKPEDTSVYYCAADVVSLESYSYQSLGYDSWGQGTQVNVSS
polyreactivity (PSR sort gate): high polyreactivity

QVQLVESGGGLVPAGGSLRLICAASGSTFYGYAIGWYRPAPGKVRELVATITSGGTRTRYADSVKGRFTISRDNAKKTVYLQMNSLKPEDTAVYYCNAVYRARSYDYWGQGTQVTVSS
polyreactivity (PSR sort gate): high polyreactivity

QVQLVESGGGLVQAGGSLRLSCAASGSIFDFYAMGWDRQAPGKERELVAAISGSGGSTYYADSVKGRFTISRDNAKNTVYLQMNSLKPEDTAVYYCNAATYRTRHSNNGYWGQGTQVTVSS
polyreactivity (PSR sort gate): low polyreactivity

QVQLVESGGGLVQAGGSLRLSCAASGFTFDSYAMGWYRQAPGKERELVAAITSDGSTYYADSVKGRFTISRDNAKNSVYLQMNSLKPEDTAVYYCAADGISLYATAYDFWGQGTQVTVSS
polyreactivity (PSR sort gate): low polyreactivity

QVQLVESGGGLVQAGGSLRLSCAASGRIFRKNARGWYRQAPGKEREFVAAIRLSGGRTFYADSVKGRFTISRDNAKNTVYLQMNSLKPEDTAVYYCAAETVNGKHDYWGQGTQVTVSS
polyreactivity (PSR sort gate): high polyreactivity

QVQLVESGGGLVQAGGSLRLSCAASGFTLKSYAMGWYRQAPGKERELVASISRRGGSTYYADSVKGRFTISRDNAKNTVYLQMNSLKPEDTAVYYCAADRSGSSDGVYWGQGTQVTLSS
polyreactivity (PSR sort gate): high polyreactivity

QVQLVESGGGLVQAGGSLRLSCAASGSTLDVYAMGWYRQAPGKERELVAAISWSVGSTYYADSVKGRFKISRDNAKNTVYLQMNSLKPEDTAVYYCAAEPYEYAYYGYDYWGQGTQVTVSS
polyreactivity (PSR sort gate): high polyreactivity

QVQLVDSGRGLVQAGGSLRLSCAASGSIFDNYAMGSYRQAPGNERELVAAISGRGGSTYYADSVKGRFTISRDNAKNTVYLQMNSLKPEDTAVSYCNALVHQTYYDYDDWGHGTQVTVSS
polyreactivity (PSR sort gate): high polyreactivity

QVQLVESGGGLVQAGGSLRLSCAASGYIFVPYALGWYRQAPGKERELVASITGGGSTNYADSVKGRFTISRDNAKNTVYLQMNSLKPEDTAVYYCAAVLGGGEKGGRNRRFDSWGQGTQVTVSS
polyreactivity (PSR sort gate): low polyreactivity

QVQLVESGGGLVQAGGSLRLSCAASGSILVGYAMGRYRLAPGKERELVAAISFSGGSTYYADSVKGRFTISRDNAKNTVYLQMNRLKQEDTAVYYCAAKRRVWIFYSSSDDYWGQGSQVTVSS
polyreactivity (PSR sort gate): low polyreactivity

QVQLVESGGGLVQAGGGLRLSSAASGTFKRNAVGWYRQAPGKERELVATITRTGSTTYADSVKGRFTISRDNAMNTVYLQMNSLKPEDTAVYYCAAGYPPEDPEDYWGQGTQVTVSS
polyreactivity (PSR sort gate): low polyreactivity

QVQLVESGGGLVQAGGSLRLSCAASGRILYPYAMGWYRQAPGKERESVAAITFRGGNTYYADSVKGRFTISRDQAKNTVYLQMNSLKPEDTAVYYCAAPQRWTYAYDYWGQGTQVTVSS
polyreactivity (PSR sort gate): high polyreactivity

QVQLVESGGGLVQAGGSLRLSCAASGRIFLANAMGWYRQAPGKERELVAAISYSGGSTYYADSVKGRFTISRDNAKNTVYLQMNSLKPEDTAVYYCAADAFTWYTGRAWKYYYWGQGTQVTVSS
polyreactivity (PSR sort gate): low polyreactivity

QVQLVESGGGLVQAGGSLRLSCAASGIIFGSNTMGWYRQAPGKERELVAAITSSDGSTHYADSVKGRFTISRDNAKNTVYLQMKSLKPEDTAVYYCAARKVTYGHSYGYDYWGQGTQVTLSS
polyreactivity (PSR sort gate): low polyreactivity

QVQLVESGGGLVQAGGSLRLSCAASGRLFYLNAMGWYRQAPGKERDLVAAISGSTGSTYYADSVKGRITISRDNAMNPVYLHMTSLKPVDTAVYYSNAGGVYVEFNYWGQGTQVTVSS
polyreactivity (PSR sort gate): low polyreactivity

QVQLVESGGGLVQAGGSLRLSCAASGSIFAVYAMRCYRQAPAKARELVATITGIDTGTYYADSVKGRCTISRDIAKNTVYLHMNILKPEDTAVYYCAAVCRYRHLRFYYWGQGTQGTVSS
polyreactivity (PSR sort gate): high polyreactivity

QVQLVESGGGLVQAGGSLRLSCAASGRILGYYAMGGSRQAPGKERELVAAISSGDSTNYADSVKGRFTISRDNAKNTVYLQMNSLKPEDTAVYYCAAKGWIWNPYNYWGQGTQGTVSS
polyreactivity (PSR sort gate): low polyreactivity

QLQLVESGGGLVQAGGSLRLSCAASGFTFRYYAMGWYRQAPGKERELVAAITRSGTTSYADSVKGRFTISRDNAKNTVYLQMNSLKPEDTAVYYCNTRVTGNRLGYYYWGQGTQVTVSS
polyreactivity (PSR sort gate): high polyreactivity

QVQLVESGGGLVQAGGSLRLSCAASGRTFYGYAMGWYRQAPGKERELVASISYSGGNTYYADSVKGRFTISRDIAKNTVYLQMNSLKPEDTAVYYCAAEVVFFGWHYDYWGQGTQVTVSS
polyreactivity (PSR sort gate): high polyreactivity

QVQLVESGGGLVQAGGSLRLSCAASGLTFSKNAMGWYRQAPGKERELVATISYSSSRTNYADSVKGRFTISRDNAKNTVYLQMNSLKPEDTAVYYCAARVYKGWPTHYDYWGQGTQVTVSS
polyreactivity (PSR sort gate): high polyreactivity

QVQLVESGGGLVLAGGSLRLSCAASGRIFAVYAMGWYRQAPGQERELVAAIRARGGSTYYADSVKGRFTISRDNAKNTVDLQMNSLKPEDTPDYYCTARTSYSRTYRYYYWGQGTQVTVSS
polyreactivity (PSR sort gate): high polyreactivity

QVQLVESGGGLVQAGGSLRLSCAASGSTFDRYTMGWYRQAPGKERELVAAISESDGSTYYADSVKGRFTISRDNAKNTVYLLMNSLKPEDTAVYFCAAEWTHYWWYQYDFWGQGTQVTVSS
polyreactivity (PSR sort gate): high polyreactivity

QVQLVESGGGLVQAGGSLRLSCAASGIIFYRYAMGWYRQAPGKERELVARITYNGGRTYYADSVKGRFTISRDNAKKTVYLQMNSLKPEDSAVYYCAARGHGGYYYWGQGTQVTVSS
polyreactivity (PSR sort gate): high polyreactivity

QVQLVESGGGLVQAGGSLRLSCAASGSTFSDYTMGWSRQAPGKDRVLVAALNAGGSTNYADSVKGRFTISRDNAKNTVYLQMNSLKPEDTAVYYSNADSSYLANGYWDPDYTPYDSWGQGTQVTVSS
polyreactivity (PSR sort gate): low polyreactivity

QVQLVESVGGLVQAGGSLRLSCAASGRTFRWNAMGWYRQAPGKERELVAAISYSGGSTYYADSVKGRFTISRDNAKNTVYLQMNSLKPEDTAVYYCAKAYSWYPIFRGLDSWGQGTQVTVSS
polyreactivity (PSR sort gate): high polyreactivity

QVQLVESGGGLVQAGGSLRLSCAASGSIFQYTMGWYRQAPVKEMELVAAITRSGSSTYYADSVKGRFTISRDNAKNTVYLQMNSLKPEDTAVYYCAHNIRRVLGYGSWGQGTQVTVSS
polyreactivity (PSR sort gate): high polyreactivity

QVQLVDSGGGVVQAGGSLRLSCPASGRTFRGYAMGWYRQAPGKERELVAAISSGGSTYYADSVKGRFTISRDNAKNTVYLQMNSLKPEDTAVYYCAAGGPSTLDDYWGQGTQVTVSS
polyreactivity (PSR sort gate): low polyreactivity

QVQLVESGGGLVQAGGSLRLSCAASGGTFSYNTMGWYRQAPGKERELVAVITFSGGSTYYADSVKGRFTISRDNAKNTVYLQMNSLKPEDTAVYYCNARSYPRWLRYDYWGQGTQVTVSS
polyreactivity (PSR sort gate): low polyreactivity

QGQLVESGGGLVQAGGSLRLSCAASGFIFVPYAMGWYRQAPGKEREFVAAITASGGNTYYADSVKGRFTISRDNAKNTVYLQMNSLKPEYTAVYYCAAEISGSLESLDYWGQGTQVTVSS
polyreactivity (PSR sort gate): low polyreactivity

QVQLVESGGGLVQAGGSLRLSCAASGRIFYFYAMGWYRQAPGKETELVAAISTSGGSTYYADSVKGRFTISRDNEKNTVYLQMNSLKPEYTAVYYCAARFRYYGSEYDYWGQGTQVTVSS
polyreactivity (PSR sort gate): low polyreactivity

QVQLVESGGGLVQAGGSLRLSCAASGRIFQRNVMGWYRQAPGKERELVAAITGSGGSTYYADSLKGRFTISRDNAKNTVYLQMNSLKPEYTAVYYCAAKVYRGYDYWGQGTQVTVSS
polyreactivity (PSR sort gate): high polyreactivity

QVQLVESGRGLFQAGGSLRISCAASGSTYQFYAMGWYRQAPGIERELVASIRVRSGTTYYADSVKGRFTISRDNAKNTVYLQMNSLKPEDTAVYYCASGRPYYGRKYDYWGQGTQVTVSS
polyreactivity (PSR sort gate): high polyreactivity

QVQLVESVGGLVQAGGSLRLSCAASGSTFYENTMGWYRQAPGKERELVAAISRSGVSTYYADSVKGRFTISRDNAKNTVYLQMNSLKPQDTAVYYCAAIVYRRYDYWGQGTQVTVSS
polyreactivity (PSR sort gate): high polyreactivity

QVQRVESGGGLVQAGGSLRLSCAASGRIFGGYAMGWYRQAPGKERELVAGITIGGRTNYADSVKGRFTISRDNAKNTVYLQMNSLKPEDTAVYYCNTDLTGLDAEYDYWGQGTQLTVSS
polyreactivity (PSR sort gate): low polyreactivity

QVQLVESGGGLVQAGGSLRLSCAASGLIFPSYTMGWYRQAPGKERELVAAITFSGDSTNYADSVKGRFTISRDNAKNTVYLQMNSLKPEDTAVYYCAASQVSDTTRFGYWGQGTQVTVSS
polyreactivity (PSR sort gate): low polyreactivity

QVQLVESGGGLVQAGGSLRLSCAASGSIFTNAMGWYIQAPGKERELVAAISSSGGSTYYADSVKGRFTISRDNANNTVYLQMNSLKPEDTAVYYCSADHFGGRDYWGQGTQVTVSS
polyreactivity (PSR sort gate): low polyreactivity

QVQLEESGGGLVQAGGSLRLSCAASGIIIATYAMGWYRQAPGKERELVAVISNDGSTHYADSVKGRFTISRDNAKNTVYLQMNSLKPEDTAVYYCNAEEIDEASYAYPPLEYDYWGQGTQVTVSS
polyreactivity (PSR sort gate): low polyreactivity

QVQLVESGGGLVQAGGSLRLSCAASGYTFYFYAMGWYRQAPGKEREFVAAIRSSGGRTYYADSVKGRFTISRDNAKNTVYLQMNSLKPEDTAVYYCAAAGYYYSVDGAGPRYDYWGQGTQVTVSS
polyreactivity (PSR sort gate): low polyreactivity

QVQLVESGGGLVQAGGSLRLSCAASGSTFDYYAMGWYRQAPGKERELVAAIRWSSGRTYYADSVKGRFTISRDNAKNTVYLQMNSLKPEDTAVYYCAARARGRYKRVALDYWGQGTQVTVSS
polyreactivity (PSR sort gate): high polyreactivity

QVHLVESGGGLVQAGGSLRLSCAASGRIFRPYAMGWYRQAPGKERELVAGLTSSGGSTYYADSVKGRFTISRDNAKNTVYLHMNSRKPEDTALYYCAAGPDYGWRRYDYWGQGTQVTVSS
polyreactivity (PSR sort gate): low polyreactivity

QVQLVESGGGLVQAGGSLRLSCAASGRIFGEYAMGWYRQAPGKERELVAAISGGGSTYYADSVKGRFTISRDNAKNTVYLQMNSLKPEETAVYYCAVYSVYHEYDYWGHGTQVTVSS
polyreactivity (PSR sort gate): low polyreactivity
